Results published in the supplement of paper PMC9170038.

Tested on: MS2 coat protein
Assay: apparent KD of MS2 coat protein; designed switch direction (-1 OFF switch, 1 ON switch): 1; higher = weaker reporter binding
How it was run: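 For each design, the apparent KD is the median over clusters of curves fitted to normalised cluster fluorescence. Clusters held RNA switches with common flanks, transcribed on Illumina chips by stalled E. coli RNA polymerase. These were titrated with SNAP-549-labelled MS2 coat protein, doubling from 0.7 or 1.5 nM to 3 µM, without input, with 200 uM small-molecule ligand, or with an oligonucleotide input.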

[1] = Eterna round: R95, input ligand: FMN 200 uM
[2] = Eterna round: R95, input ligand: microRNA oligo, concentration not stated
[3] = Eterna round: R95, input ligand: none
[4] = input ligand: microRNA oligo, concentration not stated

| Sequence | apparent KD of MS2 coat protein [1] [nM] | apparent KD of MS2 coat protein [2] [nM] | apparent KD of MS2 coat protein [3] [nM] | apparent KD of MS2 coat protein (input ligand: FMN 200 uM) [nM] | apparent KD of MS2 coat protein [4] [nM] | apparent KD of MS2 coat protein (input ligand: none) [nM] |
| --- | --- | --- | --- | --- | --- | --- |
| GGUCCAGCCUGAGCUGGACAAAAGCAUGUACAUGAGGAUCACCCAUGUCAUGUACAAGCUUUUUGCUCGUCUAAAGA [Mat - hsa-mir-208a - 91] (puzzle: Sensor for hsa-mir-208a) | 517 | 17.7 | 705 | – | – | – |
| GGUCCAGCCUGAGCUGGACAAAAGCAUGUACAUGAGGAUCACCCAUGUCAUGUACAAGCUUUUUGCUCGUCUAAAUA [Mat - hsa-mir-208a - 90] (puzzle: Sensor for hsa-mir-208a) | 464 | 16.3 | 557 | – | – | – |
| GGUCCAGCCUGAGCUGGACAAAAGCAUGUACAUGAGGAUCACCCAUGUCAUGUACAAGCUUUUUGCUCGUCUAAAUU [Mat - hsa-mir-208a - 94] (puzzle: Sensor for hsa-mir-208a) | 781 | 15.1 | 578 | – | – | – |
| GGUCCAGCCUGAGCUGGACAAAAGCAUGUACAUGAGGAUCACCCAUGUCAUGUACAAGCUUUUUGCUCGUCUUAAUA [Mat - hsa-mir-208a - 89] (puzzle: Sensor for hsa-mir-208a) | 583 | 15 | 548 | – | – | – |
| GGUCCAGCCUGAGCUGGACAAAAGCAUGUACAUGAGGAUCACCCAUGUCAUGUAUAAGCUUUUUGCUCGUCUUAAAA [JL mod - D87 - 11] (puzzle: Sensor for hsa-mir-208a) | 20.4 | 10.5 | 20 | – | – | – |
| GGUCCAGCCUGAGCUGGACAAAAGCAUGUACAUGAGGAUCACCCAUGUUCAUGUACAAGCUUUUUGCUCGUCUUAUU [salish99_208a_r3_049] (puzzle: Sensor for hsa-mir-208a) | 560 | 15.8 | 687 | – | – | – |
| GGUCCAGCCUGAGCUGGACCGAAGCGUGUACAUGAGGAUCACCCAUGUCAUGUACAAGCUUUUUGCUCGUCUUAUUG [JL-shm-2.10 JL Mod] (puzzle: Sensor for hsa-mir-208a) | 149 | 18.8 | 285 | – | – | – |
| GGUCCGGCCUGAGCUGGACCGAAGCAUGUACAUGAGGAUCACCCAUGUCAUGUACAGGCUUCUUGCUCGUCUUGUUG [JL-shm-2.15 JL Mod] (puzzle: Sensor for hsa-mir-208a) | 90.3 | 16.6 | 219 | – | – | – |
| GGUCGGACUACAUGAGGAUCACCCAUGUGUGCGGAAACGCCAUAGGAUAUCUGUCCGAAAAGGUCAGAGAAGGGUGAACCGACC [Fiskers NG3ss - 67] (Eterna round: R96, puzzle: Same State NG 3) | – | – | – | 882 | 30.1 | 73.9 |
| GGUGCAAUUAACGCCUACAUGAGGAUCACCCAUGUAUGUAGGCAGGAUAUCGUUUGCAAAGCAAACGAGAAGGGCUGUAGUACC [Mat - Same State NG 3 - JL Mod - D40] (Eterna round: R96, puzzle: Same State NG 3) | – | – | – | 51.1 | 109 | 131 |
| GGUGCCAAUAAAGCCUACAUGAGGAUCACCCAUGUAUGUAGGCAGGAUAUCGUUUGCAAAGCAAACGAGAAGGGCCGAGGCACC [Mat - Same State NG 3 - JL Mod - D55] (Eterna round: R96, puzzle: Same State NG 3) | – | – | – | 18 | 29.3 | 39.6 |
| GGUGCCAAUAAAGCCUACAUGAGGAUCACCCAUGUAUGUAGGCAGGAUAUCGUUUGCAAAGCAAACGAGAAGGGCUGAGGCACC [Mat - Same State NG 3 - JL Mod - D52] (Eterna round: R96, puzzle: Same State NG 3) | – | – | – | 18.4 | 39.8 | 38.8 |
| GGUGCCAAUAAAGCCUACAUGAGGAUCACCCAUGUAUGUAGGCAGGAUAUCGUUUGCUUUGCAAACGAGAAGGGCUGAGGCACC [JL SSNG3 1.18] (Eterna round: R96, puzzle: Same State NG 3) | – | – | – | 16.8 | 28.6 | 38.6 |
| GGUGCGAAAUAAGCCUACAUGAGGAUCACCCAUGUAUGUAGGCAGGAUAUCGUAUGCAAAGCAUACGAGAAGGGCUGUCGCACC [Mat - Same State NG 3 - JL Mod - D48] (Eterna round: R96, puzzle: Same State NG 3) | – | – | – | 33.2 | 61 | 94.6 |
| GGUGGCGAAAGCGACAUGAGGAUCACCCAUGUCAUCGGAGGGCAGGAUAUCCGGCGAAAGCCGAAGGAGAAGGGUCGAAAAGAA [ssng3v2 b] (Eterna round: R96, puzzle: Same State NG 3) | – | – | – | 62.4 | 25.8 | 43.6 |
| GGUGGGUUGCUGCCGGCACAUGAGGAUCACCCAUGUUUUGGGAAGGAUAUGGUACCUAUUUGGUACCAGAAGGUCCCGUUGGUG [salish99_SSNG3_r04_709] (Eterna round: R96, puzzle: Same State NG 3) | – | – | – | 978 | 449 | 898 |
| GGUGGGUUGCUGCCGGCACAUGAGGAUCACCCAUGUUUUGGGAAGGAUAUGGUCCCUCUUUGGUGCCAGAAGGUCCCGUUGGUC [salish99_SSNG3_r04_715] (Eterna round: R96, puzzle: Same State NG 3) | – | – | – | 232 | 75.3 | 165 |
| GGUGGGUUGCUGCCGGCACAUGAGGAUCACCCAUGUUUUGGGAAGGAUAUGGUCCCUCUUUGGUGCCAGAAGGUCCCGUUGGUG [salish99_SSNG3_r04_714] (Eterna round: R96, puzzle: Same State NG 3) | – | – | – | 691 | 402 | 743 |
| GGUUUAGUCAAGUGCCGUUGCACUUGAAAACAUGAGGAUCACCCAUGUUUGGGACAAGCUUUGCUCCUCGUCUUUCC [Tiatmaraen] (puzzle: Sensor for hsa-mir-208a) | 477 | 66.3 | 591 | – | – | – |
| GGUUUAGUCAGGCACAAUUGCGCCUGAAAACAUGAGGAUCACCCAUGUUUGGGACAAGCUUUGCUCCUCGUCUUGCA [Enzati] (puzzle: Sensor for hsa-mir-208a) | 306 | 68.1 | 385 | – | – | – |
| GUAAAACAUGAGGAUCACCCAUGUCAACAAAGUCGAGGAUAUGGGCAAAUAAAAUAAGAACCAGAAGGCGAAUAAG [salish99_SS1_r3_009] (Eterna round: R96, puzzle: Same State 1) | – | – | – | 45.9 | 125 | 235 |
| GUAAAACAUGAGGAUCACCCAUGUCAACAAAGUCGAGGAUAUGGGCAAAUAAAAUAAGAACCAGAAGGCGAAUAAG [salish99_SS1_r3_009] (puzzle: Same State 1) | 44 | 703 | 1290 | – | – | – |
| GUAGAUAUAGAGGAGGAUAUUCGAUGAGGAACAUGAGGAUCACCCAUGUAAGAGAGAGAUGAUGAGAAGAAGGCUUAGAGGGAUG [Altered State 2-4 - Jieux - Same State 2] (puzzle: Same State 2) | 25.1 | 35.8 | 36.4 | – | – | – |
| GUAGCAUACCGAGGAUAUUCAUAAAAUAAAUAAACAUGAGGAUCACCCAUGUGGCGAAAGCCUUGGGAGAAGGCGGAAUGCUAC [Xeonanis - 20 Mod73] (Eterna round: R96, puzzle: Same State NG 2) | – | – | – | 20 | 370 | 359 |
| GUAGCAUACCGAGGAUAUUCAUAUAAUACAUGAGGAUCACCCAUGUUAAAUAGGCGAAAGCCUUGGGAGAAGGCGGAAUGCUAC [Xeonanis - 20 Mod66] (Eterna round: R96, puzzle: Same State NG 2) | – | – | – | 10.5 | 13 | 17.1 |
| GUAGCAUACCGAGGAUAUUCAUAUAAUAUUACAUGAGGAUCACCCAUGUAUAGGCGAAAGCCUUGGGAGAAGGCGGAAUGCUAC [Xeonanis - 20 Mod61] (Eterna round: R96, puzzle: Same State NG 2) | – | – | – | 13.2 | 24.9 | 28.6 |
| GUAGCAUACCGAGGAUAUUCAUAUACAUGAGGAUCACCCAUGUUAAAUAAUAGGCGAAAGCCUUGGGAGAAGGCGGAAUGCUAC [Xeonanis - 20 Mod70] (Eterna round: R96, puzzle: Same State NG 2) | – | – | – | 10.3 | 9.72 | 12.6 |
| GUAGCAUACCGAGGAUAUUCAUAUUACAUGAGGAUCACCCAUGUUAUAUAGGCCAAAAGGCCUUGGGAGAAGGCGGAAUGCUAC [Xeonanis - 20 Mod9] (Eterna round: R96, puzzle: Same State NG 2) | – | – | – | 10.3 | 9.73 | 14.7 |
| GUAGCAUACCGAGGAUAUUCAUUACAUGAGGAUCACCCAUGUUUAUUAUAGGCCAAAAGGCCUUGGGAGAAGGCGGAAUGCUAC [Xeonanis - 20 Mod12] (Eterna round: R96, puzzle: Same State NG 2) | – | – | – | 8.36 | 8.47 | 10.7 |
| GUAUAACAUGAGGAUCACCCAUGUCAACAAAGUCGAGGAUAUGGGCAUAUAAUAUAUGAACCAGAAGGCGAAUAUG [Mat - Same State 1 - Mod of UCT - D36] (puzzle: Same State 1) | 34.2 | 37.9 | 56.7 | – | – | – |
